Test results: paper PMC7566471, “A new perspective on the interaction between the Vg/VGLL1-3 proteins and the TEAD transcription factors” (Scientific Reports, 2020)
Where a chain is given by its changes, count along the chain named. Read-outs that look alike come from different tables or passages of the source. Each block holds one molecule with its values, some of them ahead of it.

Assays:
[1] = target: TEAD4 (protein of the SPR and TR-FRET assays) (human); assay: SPR; peptides against TEAD4; Kd at equilibrium; peptide stocks in DMSO or in acetonitrile:(water + 1 mM TCEP)
[2] = target: TEAD4 (protein of the SPR and TR-FRET assays) (human); assay: FRET or BRET; TR-FRET assay with TEAD4; potency (IC50) of peptides; methodology in Fig. S8
[3] = target: wt^Sd (Scalloped 223–440), N-biotinylated-Avitagged (Drosophila melanogaster) (UniProt P30052); assay: SPR; N-biotinylated-Avitagged Sd (wild type or mutant) immobilised on sensor chips; Yki or Vg fragment as analyte; Kd at equilibrium by a standard SPR method
TEAD4 (Homo sapiens) = TEAD4 (Homo sapiens) (UniProt Q15561); conditions: cited from earlier work
Chain of TEAD4 (Homo sapiens) (Q15561 whole entry): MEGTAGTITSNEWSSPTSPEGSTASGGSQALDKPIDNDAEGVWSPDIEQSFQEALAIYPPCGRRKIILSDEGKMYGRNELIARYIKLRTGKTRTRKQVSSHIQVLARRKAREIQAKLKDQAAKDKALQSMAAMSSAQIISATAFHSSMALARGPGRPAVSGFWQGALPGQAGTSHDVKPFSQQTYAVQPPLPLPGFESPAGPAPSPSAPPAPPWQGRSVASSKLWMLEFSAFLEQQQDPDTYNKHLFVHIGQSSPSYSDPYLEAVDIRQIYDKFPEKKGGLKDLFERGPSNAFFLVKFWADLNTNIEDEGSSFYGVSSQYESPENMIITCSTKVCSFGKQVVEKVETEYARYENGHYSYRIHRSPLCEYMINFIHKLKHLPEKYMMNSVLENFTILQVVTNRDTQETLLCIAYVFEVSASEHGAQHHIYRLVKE

[4] = target: N-terminally V5-tagged Asp272Ala^TEAD4 (full length) (human) (UniProt Q15561); assay: co-IP; V5-TEAD4 and (FLAG)3-VGLL2 co-transfected into HEK293FT YAP/TAZ double knockout cells; V5 immunoprecipitation, anti-FLAG Western blot; similar results in wild-type HEK293FT cells
Chain of N-terminally V5-tagged Asp272Ala^TEAD4 (full length) (human) (Q15561 whole entry D272A, the tested form may be a part): as the sequence (Q15561 whole entry) above, with D272A counted along it

[5] = target: T1, wt^Sd (Scalloped 223–440), N-biotinylated-Avitagged (Drosophila melanogaster, UniProt P30052 223-440, biotin on the Avi-tag; acylated (incubated with myristoyl coenzyme A; purified as a mixture of acylated and non-acylated proteins)); assay: SPR; N-biotinylated-Avitagged Sd (wild type or mutant) immobilised on sensor chips; Yki or Vg fragment as analyte; Kd at equilibrium by a standard SPR method; conditions: both partners purified
T1 construct: Immobilised on SPR sensor chips by the biotinylated Avi-tag; also called Sd^223–440; source: E. coli BL21(DE3) with a BirA plasmid, purified (HisTrap, HRV 3C cleavage, Superdex 75); not shown: His6, N-terminal, cleaved; Avi-tag, N-terminal, kept
T1 sequence (looked up): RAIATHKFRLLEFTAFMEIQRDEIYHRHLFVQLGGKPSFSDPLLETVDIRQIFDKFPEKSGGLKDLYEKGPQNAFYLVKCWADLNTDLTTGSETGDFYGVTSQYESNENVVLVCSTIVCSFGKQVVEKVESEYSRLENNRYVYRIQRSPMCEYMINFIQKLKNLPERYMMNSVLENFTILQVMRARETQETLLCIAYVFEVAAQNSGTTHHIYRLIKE

[6] = target: T1, wt^Sd (Scalloped 223–440), …; assay: SPR; N-biotinylated-Avitagged Sd (wild type or mutant) immobilised on sensor chips; Kd by kinetic titration (Kd^KT); conditions: both partners purified
[7] = target: TEAD4 (protein of the SPR and TR-FRET assays) (human); assay: SPR; peptides against TEAD4; Kd at equilibrium; peptide stocks in DMSO or in acetonitrile:(water + 1 mM TCEP); remark: listed apart in the source
[8] = target: T2, Tyr435His^Sd (Scalloped 223–440), biotinylated Avi-tagged (Drosophila melanogaster, UniProt P30052 223-440, Tyr435His, biotin on the Avi-tag; incubated with myristoyl coenzyme A); assay: SPR; N-biotinylated-Avitagged Sd (wild type or mutant) immobilised on sensor chips; Kd by kinetic titration (Kd^KT); conditions: both partners purified
T2 construct: Scalloped (Sd), Drosophila melanogaster, UniProt P30052, amino acids 223–440, with Tyr435His; source: E. coli BL21(DE3) with a BirA plasmid, purified (HisTrap, HRV 3C cleavage, Superdex 75); not shown: His6, N-terminal, cleaved; Avi-tag, N-terminal, kept
T2 sequence (looked up): T1 sequence (looked up) with Y213H

[9] = target: T3, Asp276Ala^Sd (Scalloped 223–440), biotinylated Avi-tagged (Drosophila melanogaster, UniProt P30052 223-440, Asp276Ala, biotin on the Avi-tag; incubated with myristoyl coenzyme A); assay: as above; conditions: both partners purified
T3 construct: Scalloped (Sd), Drosophila melanogaster, UniProt P30052, amino acids 223–440, with Asp276Ala; also called Asp246Ala^Sd (as printed in two sentences); source: E. coli BL21(DE3) with a BirA plasmid, purified (HisTrap, HRV 3C cleavage, Superdex 75); not shown: His6, N-terminal, cleaved; Avi-tag, N-terminal, kept
T3 sequence (looked up): T1 sequence (looked up) with D54A

[10] = target: T2, Tyr435His^Sd (Scalloped 223–440), …; assay: SPR; N-biotinylated-Avitagged Sd (wild type or mutant) immobilised on sensor chips; Yki or Vg fragment as analyte; Kd at equilibrium by a standard SPR method; conditions: both partners purified
[11] = target: T3, Asp276Ala^Sd (Scalloped 223–440), …; assay: as above; conditions: both partners purified

Kd [1]: 58000 nM
IC50 [2]: 98000 nM
Molecule: YAP^85–99 (from UniProt P46937 85-99) (peptide)

Kd [3]: 61 nM
Molecule: Vg^298–337 (from UniProt Q26366 298-337) (peptide)

Kd [5]: 69 nM
B1: Yki^41–79 (peptide, UniProt Q45VV3 41-79, looked up)
peptide: Ac-TDDNLQALFDSVLNPGDAKRPLQLPLRMRKLPNSFFTPP-NH2
notes: Yorkie (Yki), Drosophila melanogaster, UniProt Q45VV3, residues 41–79 (lacks the putative β-strand); source: synthetic peptide, bought: Biosynthan

Kd [6]: 1.6 nM
Kd [1]: 3.1 nM
Kd [5]: < 2 nM
Kd [7]: 4.1 nM
B2: Vg^288–337 (peptide, UniProt Q26366 288-337, looked up)
peptide: Ac-CVVFTNYSGDTASQVDEHFSRALNYNNKDSKESSSPMSNRNFPPSFWNSN-NH2
notes: source: synthetic peptide, bought: Biosynthan

IC50 [2]: 160000 nM
Molecule: Ac-PMSNRNFPPSFWNSN-NH2 [Vg^323–337]

Kd [5]: 23 nM
B4: Yki^31–79 (peptide, UniProt Q45VV3 31-79, looked up)
peptide: Ac-NNLVVRVNQDTDDNLQALFDSVLNPGDAKRPLQLPLRMRKLPNSFFTPP-NH2
notes: Yorkie (Yki), Drosophila melanogaster, UniProt Q45VV3, residues 31–79; only Yki 30–146 and Vg 263–382 are described as recombinant; source: synthetic peptide, bought: Biosynthan

Kd [10]: 13000 nM
Kd [11]: 5000 nM
Kd [6]: 13 nM
Kd [5]: 13 nM
B6: Yki^30–146 (domain or fragment, Drosophila melanogaster, UniProt Q45VV3 30-146, looked up)
chain: SNNLVVRVNQDTDDNLQALFDSVLNPGDAKRPLQLPLRMRKLPNSFFTPPAPSHSRANSADSTYDAGSQSSINIGNKASIVQQPDGQSPIAAIPQLQIQPSPQHSRLAIHHSRARSS
notes: Yorkie (Yki), Drosophila melanogaster, UniProt Q45VV3, amino acids 30–146; also called Yorkie 30–146; source: E. coli (BL21(DE3) and NiCo21(DE3) are both named), purified (HisTrap, HRV 3C cleavage, Superdex 75); not shown: His-tag, N-terminal, cleaved; strep-tagII, N-terminal, cleaved; rubredoxin, N-terminal, cleaved

The remaining lines, values behind:

Molecule: VGLL1 27-51 (from UniProt Q99990)
Kd (TEAD4 (Homo sapiens)): 160 nM

Molecule: (FLAG)3-delΩ^VGLL2 (full length with the Ω-loop deleted) (from UniProt Q8N8G2-1 1-317) (natural protein)
fold reduction of co-immunoprecipitation against wt^TEAD4 with wt^VGLL2 [4]: 2 fold

Molecule: Flyman (hybrid peptide: β-strand:α-helix and Ω-loop of VGLL2 connected by the linker from Vg)
Kd [1]: 4.3 nM

Molecule: Ac-PMSQRSFPASFWNSA-NH2 [VGLL2^135–149]
IC50 [2]: 133000 nM

B3: Vg^263–382 (domain or fragment, Drosophila melanogaster, UniProt Q26366 263-382, looked up)
chain: ETPMGSGGGGLAGSGQGQAQYLSASCVVFTNYSGDTASQVDEHFSRALNYNNKDSKESSSPMSNRNFPPSFWNSNYVHPIPAPTHHQVSDLYGTATDTGYATDPWVPHAAHYGSYAHAAH
notes: Vestigial (Vg), Drosophila melanogaster, UniProt Q26366, amino acids 263–382; also called Vestigial 263–382; source: E. coli (BL21(DE3) and NiCo21(DE3) are both named), purified (HisTrap, HRV 3C cleavage, Superdex 75); not shown: His-tag, N-terminal, cleaved; strep-tagII, N-terminal, cleaved; rubredoxin, N-terminal, cleaved
Kd [6]: 0.38 nM
Kd [5]: < 2 nM
Kd [8]: 24 nM
Kd [9]: 5.5 nM

B5: Vg^288–311 (peptide, UniProt Q26366 288-311, looked up)
peptide: Ac-CVVFTNYSGDTASQVDEHFSRALN-NH2
notes: Vestigial (Vg), Drosophila melanogaster, UniProt Q26366, residues 288–311 (TONDU domain); also called TONDU domain of Vg; β-strand:α-helix region of Vg; source: synthetic peptide, bought: Biosynthan
Kd [5]: 291 nM

Molecule: Ac-CVLFTYFQGDISSVVDEHFSRALS-NH2 [VGLL2^85–108]
Kd [1]: 590 nM
IC50 [2]: 340 nM

B7: VGLL2^85–149 (peptide)
peptide: Ac-CVLFTYFQGDISSVVDEHFSRALSQPSSYSPSCTSSKAPRSSGPWRDCSFPMSQRSFPASFWNSA-NH2
Kd [1]: 34 nM
IC50 [2]: 6.3 nM
